Experimental data as given in US20170283834A1, “Processes for Producing A Fermentation Product Using A Fermenting Organism” (Novozymes A/S, priority 2014, published 2017).

Experiments:
[1] = Penicillium oxalicum glucoamylase: pH optimum; format: biochemical; settings: for Relative activity (%): pH optimum
Procedure: (§1) Substrate: 1% soluble starch (Sigma S-9765) in deionized water
(§2) 20 microL soluble starch and 50 microL acetate buffer at pH 5.3 were mixed. 30 microL enzyme solution (50 micro g enzyme protein/ml) was added to a final volume of 100 microL followed by incubation at 37° C. for 15 min.
(§3) The glucose concentration was determined by Wako kits.
(§4) pH optimum. To assess the pH optimum of the Penicillium oxalicum glucoamylase the Reaction condition assay described above was performed at pH 2.0, 3.0, 3.5, 4.0, 4.5, 5.0, 6.0 7.0, 8.0, 9.0, 10.0 and 11.0. Instead of using the acetate buffer described in the Reaction condition assay the following buffer was used 100 mM Succinic acid, HEPES, CHES, CAPSO, 1 mM CaCl2, 150 mM KCl, 0.01% Triton X-100, pH adjusted to 2.0, 3.0, 3.5, 4.0, 4.5, 5.0, 6.0 7.0, 8.0, 9.0, 10.0 or 11.0 with HCl or NaOH.

aorsin = molecular target: T1, aorsin (Aspergillus oryzae, UniProt Q8NK92); assay: PE001 protease stability, SDS-PAGE after protease treatment; format: biochemical
T1 sequence (Q8NK92 216-652): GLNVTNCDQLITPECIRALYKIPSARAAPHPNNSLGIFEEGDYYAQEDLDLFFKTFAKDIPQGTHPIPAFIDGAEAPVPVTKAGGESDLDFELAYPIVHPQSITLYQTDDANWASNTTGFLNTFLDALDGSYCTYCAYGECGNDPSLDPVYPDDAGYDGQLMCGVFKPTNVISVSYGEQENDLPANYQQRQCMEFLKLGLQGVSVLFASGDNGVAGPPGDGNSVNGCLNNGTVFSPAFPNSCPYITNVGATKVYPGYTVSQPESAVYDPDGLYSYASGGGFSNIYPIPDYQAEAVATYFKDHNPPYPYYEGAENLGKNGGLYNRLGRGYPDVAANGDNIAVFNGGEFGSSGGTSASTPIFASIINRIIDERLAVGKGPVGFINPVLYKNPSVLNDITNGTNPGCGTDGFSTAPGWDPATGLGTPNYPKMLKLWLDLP
Procedure: (§5) 40 μl enzyme solutions (1 mg/ml) in 50 mM sodium acetate buffer, pH 4.5, were mixed with 1/10 volume of 1 mg/ml protease solutions such as aspergillopepsin I described in Biochem J. 1975 April; 147(1):45-53, or the commercially available product from Sigma and aorsin described in Biochemical journal [0264-6021] Ichishima yr: 2003 vol:371 iss:Pt 2 pg:541 and incubated at 4 or 32° C. overnight. As a control experiment, H2O was added to the sample instead of proteases. The samples were loaded on SDS-PAGE to see if the glucoamylases are cleaved by proteases.

aspergillopepsin I = assay: as above; format: biochemical
Procedure: as §5

host proteases = assay: Cleavage during cultivation, SDS-PAGE of culture supernatants; set-up: species or system Aspergillus niger
Procedure: Aspergillus transformant of the variant and the wild type Penicillium oxalicum glucoamylase were cultivated in 6-well MT plates containing 4× diluted YP-2% maltose medium supplemented with 10 mM sodium acetate buffer, pH4.5, at 32° C. for 1 week.
The culture supernatants were loaded on SDS-PAGE.

[2] = Penicillium oxalicum glucoamylase: pH stability; format: biochemical
Procedure: as §1, §2, §3, §4
To assess the […] of the Penicillium oxalicum glucoamylase the Reaction condition assay was modifed in that the enzyme solution (50 micro g/mL) was preincubated for 20 hours in buffers with pH 2.0, 3.0, 3.5, 4.0, 4.5, 5.0, 6.0 7.0, 8.0, 9.0, 10.0 and 11.0 using the buffers described under pH optimum. After preincubation, 20 microL soluble starch to a final volume of 100 microL was added to the solution and the assay was performed as described above.

[3] = Glucoamylase activity (AGU) of variant compared to parent; format: biochemical; settings: 37° C., pH 4.3, maltose 100 mM
Procedure: The Novo Glucoamylase Unit (AGU) is defined as the amount of enzyme, which hydrolyzes 1 micromole maltose per minute under the standard conditions 37° C., pH 4.3, substrate: maltose 23.2 mM, buffer: acetate 0.1 M, reaction time 5 minutes.
An autoanalyzer system may be used. Mutarotase is added to the glucose dehydrogenase reagent so that any alpha-D-glucose present is turned into beta-D-glucose. Glucose dehydrogenase reacts specifically with beta-D-glucose in the reaction mentioned above, forming NADH which is determined using a photometer at 340 nm as a measure of the original glucose concentration.
The glucoamylase activity measures as AGU as described above was checked for the purified enzymes of the wild type Penicillium oxalicum and the variant glucoamylase.
The Glucoamylase Unit (AGU) was defined as the amount of enzyme, which hydrolyzes 1 micromole maltose per minute under the standard conditions (37° C., pH 4.3, substrate: maltose 100 mM, buffer: acetate 0.1 M, reaction time 6 minutes).

[4] = aspergillopepsin I, incubation 32° C. overnight
[5] = culture supernatant, 32° C., 1 week

B1: Penicillium oxalicum glucoamylase: wild type Penicillium oxalicum glucoamylase disclosed in SEQ ID NO: 9 (protein, listed as Penicillium oxalicum)
chain: MRLTLLSGVAGVLCAGQLTAARPDPKGGNLTPFIHKEGERSLQGILDNLGGRGKKTPGTAAGLFIASPNTENPNYYYTWTRDSALTAKCLIDLFEDSRAKFPIDRKYLETGIRDYVSSQAILQSVSNPSGTLKDGSGLGEPKFEIDLNPFSGAWGRPQRDGPALRATAMITYANYLISHGQKSDVSQVMWPIIANDLAYVGQYWNNTGFDLWEEVDGSSFFTIAVQHRALVEGSQLAKKLGKSCDACDSQPPQILCFLQSFWNGKYITSNINTQASRSGIDLDSVLGSIHTFDPEAACDDATFQPCSARALANHKVYVDSFRSIYKINAGLAEGSAANVGRYPEDVYQGGNPWYLATLGASELLYDALYQWDRLGKLEVSETSLSFFKDFDATVKIGSYSRNSKTYKKLTQSIKSYADGFIQLVQQYTPSNGSLAEQYDRNTAAPLSANDLTWSFASFLTATQRRDAVVPPSWGAKSANKVPTTCSASPVVGTYKAPTATFSSKTKCVPAKDIVPITFYLIENTYYGENVFMSGNITALGNWDAKKGFPLTANLYTQDQNLWFASVEFIPAGTPFEYKYYKVEPNGDITWEKGPNRVFVAPTGCPVQPHSNDVWQF
pH of highest activity ([1]; at the given conditions): 5.0
activity maintained from pH 2 to 7 ([1]; pH 2 to 7): more than 50%
Relative activity (%) ([1]; pH 2.0): 71.4%
Relative activity (%) ([1]; pH 3.0): 78.6%
Relative activity (%) ([1]; pH 3.5): 77.0%
Relative activity (%) ([1]; pH 4.0): 91.2%
Relative activity (%) ([1]; pH 4.5): 84.2%
Relative activity (%) ([1]; pH 5.0): 100.0%
Relative activity (%) ([1]; pH 6.0): 55.5%
Relative activity (%) ([1]; pH 7.0): 66.7%
Relative activity (%) ([1]; pH 8.0): 30.9%
Relative activity (%) ([1]; pH 9.0): 17.8%
Relative activity (%) ([1]; pH 10.0): 15.9%
Relative activity (%) ([1]; pH 11.0): 16.1%
cleaved glucoamylase (ca. 60 kDa) (aorsin; incubation 4° C. overnight): 60%
intact glucoamylase (ca. 70 kDa) (aorsin; incubation 4° C. overnight): 40%
cleaved glucoamylase (ca. 60 kDa) (aorsin; incubation 32° C. overnight): 90%
intact glucoamylase (ca. 70 kDa) (aorsin; incubation 32° C. overnight): 10%
intact glucoamylase (ca. 70 kDa) (aspergillopepsin I; aspergillopepsin I, incubation 4° C. overnight): 100%
cleaved glucoamylase (ca. 60 kDa) (aspergillopepsin I; [4]): 10%
intact glucoamylase (ca. 70 kDa) (aspergillopepsin I; [4]): 90%
SDS-PAGE result after protease treatment (aspergillopepsin I; proteases (aspergillopepsin I, aorsin)): degraded by proteases
cleavage by host proteases during fermentation (host proteases): cleaved by host proteases during fermentation
cleaved glucoamylase (ca. 60 kDa) (host proteases; [5]): 10%
intact glucoamylase (ca. 70 kDa) (host proteases; [5]): 90%
Relative activity (%) ([2]; preincubated 20 hours at pH 2.0): 17.4%
Relative activity (%) ([2]; preincubated 20 hours at pH 3.0): 98.0%
Relative activity (%) ([2]; preincubated 20 hours at pH 3.5): 98.0%
Relative activity (%) ([2]; preincubated 20 hours at pH 4.0): 103.2%
Relative activity (%) ([2]; preincubated 20 hours at pH 4.5): 100.0%
Relative activity (%) ([2]; preincubated 20 hours at pH 5.0): 93.4%
Relative activity (%) ([2]; preincubated 20 hours at pH 6.0): 71.2%
Relative activity (%) ([2]; preincubated 20 hours at pH 7.0): 90.7%
Relative activity (%) ([2]; preincubated 20 hours at pH 8.0): 58.7%
Relative activity (%) ([2]; preincubated 20 hours at pH 9.0): 17.4%
Relative activity (%) ([2]; preincubated 20 hours at pH 10.0): 17.0%
Relative activity (%) ([2]; preincubated 20 hours at pH 11.0): 17.2%
Relative specific activity AGU/mg [3]: 100%
